Measured values from PMC4412080.

Target: mouse anti-human CD4 IgG (BD Biosciences) (mouse)
Experiment: ELISA; wells coated overnight at 4°C in PBS with mouse anti-human CD4 IgG (4 μg/mL) or with BSA; blocked with 3% BSA; phage (ID1-mZ 3 × 10^8 to 1 × 10^10 PFU/mL) in 0.1% Tween, 0.1% BSA in PBS for 1 h at r.t.; detected with HRP-conjugated anti-M13 antibody and TMB; mid-point of binding estimated; multivalent display; how the phage was prepared is not told

Question: “ID1-mZ phage (M13KE-derived phage that displays the minimized Z-domain of protein A and a TEV recognition sequence inside pIII, in linker L1)” was tested. Which EC50 did it give?
Answer: 0.6 pM
